Assay: soluble on expression in E. coli; label from the status in PepcDB or PDB records

Soluble on expression in E. coli, not soluble:
MGSDKIHHHHHHSCLDDDDSSSDSLVISTINLISPDSKDFYFTLDDGKTMFPSNGNGWISDKNKDGQRAFVIFKELEEPVKGYDYNIQVREIKEILTKEIVTMGEGENTEEKIGDDKINSTYMWITQDKKYLTIEFQYYGTHSEDKKHFLNLVINNKEAEPAADDANDEYIDLEFRHNDEGDTADRLGEGYISFKLDKIQDQMKGKKGLRIRVKTLYNGEKFYEVKFPSSN, MGSDKIHHHHHHMLKHFGSKVRNLRVTRNITREDFCGDETELSVRQLARIESGQSIPNLTKAHYIAKQLNVKLDILTGGESLELPKRYKELKYLILRIPTYADAERLKLRECQFDHIFEEFYDNLPEDECLAIDSLQAKFEVYQTGDINFGVEVLCECFDKVKYKEKYTLNDLIIIDLFLTCAVVSKFNNRAFTKEVFQTICKTLISQNHKLTAEDLFWFNHVLLNCVFVGLCLNSEECLAEMLEVSRQTMVSTHDFHKMPLYFMYQWKYFITIDNDIKSAENAYQQSIMFSKMIDDKHLIKKLELEWQEDITGH, QTITIKGQVLDEKKQPVSYASVVISTDSLSKKDISYAVTDEHGQFRIGQLSAIPDKRWIHVRSIGYLGFHKQISLRAVKSPLDITLTEDTKELEEVVVVARARDAYAKGDTIVFNSKNYTLGNERNLGDVVKKMPGMEVDQTGNISYQGKKIGKVLVDGQDILSSSSGVAMNTLPPDFANSIELLSNYTDGDIAHAFKAEEQLALNLKSNKKVALSGSFEGGGGLKDKFISKASLITVLPKISASTIINANNTGEAVFSIQDYMSNIIDFESIRSGASTQTSLSLSPEEQQLLLPPTNEHARTAGLANINISWTPHSSYKLRASTLFNKGKSEGAHTKTDTYTLPENYFTNISTGTADKETQLVSQYLSQKWIPSRFFSVSAKTKIDIRNHNADNIYANTFNDNHIHALEKPKNHFSGIKQDIEMKWLLSKGLLFGGGSFVFNKGKINSDIYTDVLLLPLPHINGNSIYPYFHEHIKKDMEKGFNAYVGGMYPVLNNIYLRGEFSMSMNWNELKMAYPTSINEETADLRVFRPYISLMKNKGVFRFNIGSYFSSYRQKTSPELLREKSLFYIEPHASIELVMSNQHRLMLSVSEAVSPSTIDYFSQQILAKGYNNLQLPSKLSNPFAKRFKGNLSYAYFSLFNRLSMYGNLSYIKDRDTHITVTTSKGLLISNFYQDGGWSNTLRTNAYLSKGIGTLPLDIKLSGKYTLSKHNLMRVDKEDELINKRVDAKLDLISRLYQSPVNFEIGVRFSRLDQKFTYSNIHSWNQE, MAKSYDYQSAFDIIGPVMMGPSSSHTAGAVKIGNSARAVLGDMPKHIEIRYYESFAKTHQGHGTDVAIVGGAMGYSTFDSRIKSSLDIAKDENITIDIIEDEGESIGQHPNCAYIKANTKDGRYIEVIGISIGGGTIKLKGINVNGLNVELNHGLPMLVIDGNMNKAKINHLINDLSDMDLDLGEELIETNDNEGLVVFPLNKAISESALNIIKDKHSDLNVSYIK, MTTTSAFMLNVRLDNVAVVAIDVPGEKVNTLKAEFATQVRAILKQIRENKALQGVVFISAKADNFIAGADINMIGHCQNAQEAETLARQGQQLMAEIQALPVPVIAAIHGACLGGGLEMALACHRRICTDDVKTVLGLPEVQLGLLPGSGGTQRLPRLVGVSTALDMILTGKQLRARQALKAGLVDDVVPQTILLEAAVELAKKERLAQRTLPVRERILAGPLGRALLFRLVRKKTAQKTQGNYPATERIIDVIETGLAQGSSSGYDAEARAFGELAMTPQSQALRAIFFASTEVKKDPGSDAPPGPLNSVGILGGGLMGGGIAWVTACKGGLPVRIKDINTQGINHALKYSWDLLETKVRRRHIKASERDKQLALISGSTDYRGFSHRDLVIEAVFEDLPLKQQMVAEVEQNCAAHTIFASNTSSLPIGDIAANAARPEQVIGLHFFSPVEKMPLVEVIPHASTSAQTIATTVKLAKKQGKTPIVVSDKAGFYVNRILAPYINEAIRMLTEGERVEHIDAALVKFGFPVGPIQLLDEVGIDTGTKIIPVLEAAYGERFSAPANVVASILNDDRKGRKNGRGFYLYGEKGRKSKKQVDPAIYKLIGVQGQSRLSAQQVAERCVMLMLNEAARCFDEKVIRSARDGDIGAVFGIGFPPFLGGPFRYMDALGPGEMVATLQRLAALYGPRYAPCEQLVRMAERREHFWTNGETDQGN, KIGFKLGGGFEYAFDNTWSLQPSLFLSTKGAKKDGNSINAMYLELPVMAAARFNVADNTNIVVNAGPYLACGIAGKTKIDLGNDTERKYDTFGDDALKRFDAGLGVGVALELGKVIVGLDGQFGLVDVEKIGNPKNTNFSIVLGYKF, MNTTANPSNIIVGLSGGVDSSVTAALLKQQGYQVRGVFMQNWEDDDNDEYCSIKQDSFDAIAVADIIGIDIDIVNFAAQYKDKVFAYFLQEYSAGRTPNPDVLCNAEIKFKCFLDYAVGQGADTIATGHYARKEVRNGVHYLLKGLDRNKDQSYFLYRLKPFQLERAIFPLGGLEKPEVRRLAAEFKLPTAAKKDSTGICFIGERPFREFLQKYLPTDNGKMVTPEGKTVGEHVGLMFYTLGQRKGLGIGGAGEPWFVAAKDLTKNELIVVQGHDHPLLYTRSLVMNDLSFTLPERPKAGRYTCKTRYRMADAPCELRYLDDETAELVFDEPQWAVTPGQSAVLYDGDICLGGGIIQTTDKPVIITR, MTNIEERINQIIQVLREQVVQDTAVPRNIRRAAEQAIEALQNKEKEPAVRAADAIAILEEISEDPNMPLHTRTIIWEVLGALEQIK, MEQPLMPPAPPSYVASQSQAITTQPGASIPMPPGTIVIEALPPVEGIPGGLEYLAYLDTIMVHQFLEPIEIRTGWETKNKYAIKKICYQKRQCCGAERAFVMHIVDNFNKEVLTVKRERHCCGCCCWLGSTNKSTIESPSMGLLGTVLLGHGCTNSHCNVLDKDEELLFLVDGQGCCTYCCCDDKAFTIKTPDTYKRIGAITKKWGGIIREAYTDADTFAVTFPADLDVKAKALLLATTILQSLRVVVEVEKLEIEIFICCALFMK, MAHHHHHHMDYNVSTAAVVLDCGSFHSRAGFGGEKGPRLDVPTLVGYPRHRSIAMAAGMNEQEVGEEALLKQGILDVHHPIRNGFINDWGDVEKLWSHLFFNELRVSPETHCFLLTQPVNTPAAQRERTLEIMMETFHAHSLYLGTSQVLSLYSYGLTTGLVVDSGKDVTHAVPIHEGYALVRHVTQSPVAGAALTRYLGGLLREQGYALGTATEQELLNGAKEDLCYVRPRAHVQRGAVSDIYTPASGTSAGVSPAAASAASRRSTQLTGGIKGSADSASSATATTAVTAKESFMESAAEKHLDVDGGLTPTAVMGATEDFLLPDGQRIPLAAERYDTAEVLFNYSLLALMDSNGKDSSTYEPRCKVRTDMGDLFRPSFEKGISWLPFAAVNNCEAALRPQLYANMVLAGGSTSFPGLKARLESEVRQLYRESHPSEAVVPIQVRDMPCRTYSTWLGGSMLAQTAVFQHLVVSRKEYEEEGARVIHYKSL, MGSDKIHHHHHHLKVIAIGDNVVDLYPADKQMYLGGHAANTAVFAAELGLQAAYIGTFGNDARGDFARRMLVERGVDVQHSLQYVGRNAFTTITGKDGARRKVVGEPPQELRLDPEDIAYINSFDLVYLNSESHADAFLQAITARKVYDFSILDDDKLFKKIAPQIDLAYLSGKARSDDDVEALMRRVAAAGCDRIVCSRGLRGSAALVDGMMSWQQALGVKAVDSLGAGDAYITSFAATLYSSSKPTLDAKVSESLSHAAKFASAQVLLPGSFGHGAPLIS

Soluble on expression in E. coli, soluble:
MSLVHNPDNTKLSDATFVIFDIETTGLHGRYDDVIEFSARKIKNNSEIDHQQFFLKIDKPIPKTITEITKITDEMLEGGIDQQQGLEKIRNYLDDCVMVAHNGINFDLPFLQTQFEKYNIKPLTNPLIDTLCLSWALNPLFSSHTLSNICSKLKLEFDDERLHRAEYDTEALKKVFFYFKKQLKEMGINTLTEIDQNLNKKCQIDLMKRVFTNTAIVYVKNQRGFQNLYEMLSIALTDHNANRPLVLASSLAKFRKSFLLTENPVQGDIFKAALTKPINELEKAIEKVDFVLISQPNAYLGYTLREGLKKELINDAIKLVIKTATKLKKLVAVASDAYFIHPWENEYYKAIVCAKGLGGKWHRHFNNKEKEQTVPEVFLHTTDEMLKRMSFLGEDIAYKLVVENTNKIVKLLDLNELVPTKNKLYPPVMQDSNQKLIDKTWKQAEKRYGKNLPKLIKERIEKEEGHHHHHH, MGSSHHHHHHSSGLVPRGSHMTPDDIAGFYAKRADLDLDNYIELDFDFECAGDPHEAAAHLCSEQSTAQWRRVGFDEDFRPRFAAKVLELSAEPRPSGFSVPVECAARGPVHACRVTIAHPHGNFGAKIPNLLSAVCGEGVFFSPGIPLIRLQDIRFPEPYLAAFDGPRFGIAGVRERLQAFDRPIFFGVIKPNIGLPPQPFAELGYQSWTGGLDIAKDDEMLADVDWCPLAERAALLGDACRRASAETGVPKIYLANITDEVDRLTELHDVAVANGAGALLINAMPVGLSAVRMLRKHATVPLIAHFPFIAAFSRLANYGIHSRVMTRLQRLAGFDVVIMPGFGPRMMTPEHEVLDCIRACLEPMGPIKPCLPVPGGSDSAATLENVYRKVGSADFGFVPGRGVFGHPMGPAAGATSIRQAWDAIAAGIPVPDHAASHPELAAALRAFGGR, GPGSMDPLCSPSAVSINGTPQTSVVNTSSTTSVVASPARPKLNRSVKFDPTIGGPLHSGDLSLDTSFVHGAGGDADAREHYGRRGRADEAATDSPLYSGDVLHEHEELLPFQLTREDVAAAFEFLDVNGSGLLTMGNLKHRLSAFYPHLTSKEYKFLVEDPSGSTGGGGTASSAARSAVAARHGGAADGCGGSTGGPTTSSLAQAASSARPSNLSFDDGGDAVHANGALSGEGVASGVGGSNATSARAGLDVDQLWDLINSFQQLQRTFGAAQAGQAEGQNAQNTRSAFNSSFDAYLVGTHGTQGIRSADIGFDAVGEAFRIYDPHNTHYVEEEVLSCIMARVGFGELTEEELAVLVSTADFDGDGRISLEDFRRLVSMKGRFEK, SLIRSMTGFGSASKTQDDLSVSVELKSVNYRFKEVNARLPRPLLYFEDKLKQTILQHIQRGRIELFVSVDSDMLVEKRLEIDWPLLDEFVAAARDMKKRYQLSAEPDVMDFFKLDHVVQVHEEQTQNDKLEALIIDAAEEAVKGLCEMREKEGLLLAKDCLMHIDQLEELVRETELLAADVVSRYRERLYARIKEWTEDVLDESRLVTECAIFADRSDITEEITRLKSHFAQFRDILASGGAVGRKLDFLVQELNREANTIGSKANDHQITKLVVEMKSSIEKIKEQVQNIE, MTKVYIENYGCARNRADGEIMAGLLLSSGYEIVEGEENADIVVVNSCAVKDPTEVKIARRIRELLDRGKKVIVTGCLPHVNPDAIDERVSAVLGVKSIDRIVQAVEYALRGEKLISVPDWRKRNLDKLDFPRLSPRGVHFILPIAEGCLNGCTYCATRSARGVLKSYSPEKIVEWVKWAIRQGYKEIWLSAEDTGCYGFDIGTNLAKLLDEITAIEGEFRIRVGMMNPNHVLKFLDELIEAYKDEKVYKFLHLPVQSGDNEILRRMGRTYTVEEFEEIVNAFRREFPDLNLHTDIIVGFPGESEEAFQRSLELIKRIKPDKVNVSRYSPRPGTIAAKWKQLPGWVVKERSRIMHRVRLQISYEINQRYVGRKVDILVHGEGKKGNVDAVTMNYKHIIIPRGEKGEFARAKVNGATSTYLLGEIVD, MPRVWKFGDQINTDDILPGKYAPFMVGEDRFHLYAFAHLRPEFAKEVRPGDILVFGRNAGLGSSREYAPEALKRLGIRAIIAKSYARIFFRNLVNLGIVPFESEEVVDALKDGDEVELDLESGVLTRGEERFLLRPPPPFLLEALKEGSLLDYYKKHGRFPGE, MSLSQLEPRQQAFRNAMAHLSAAVNVITSNGPAGRCGITATAVCSVTDSPPTLMLCINRNSEMNTVFKANGRLCVNVLSGEHEEVARHFAGMTEVPMERRFALHDWREGLAGLPVLHGALANLQGRIAEVQEIGTHSVLLLELEDIQVLEQGDGLVYFSRSFHRLQCPEGGSHHHHHH
